Test results reported in US20250057927A1, “ALPHA-1 A[…] FROM YEAST FOR USE IN THE TREATMENT OF VIRAL INFECTIONS” (priority 2021, published 2025).
“Also recorded” adds a separate entry of the source. Where a name gives a salt, the structure may show the parent alone.

What was measured:
Covid-19 = tested on: Covid-19; set-up: species or system patients; conditions: in vivo
[1] = tested on: protease-mediated entry of SARS-CoV-2; conditions: in vitro; cited from earlier work
[2] = tested on: lentiviral SARS-CoV-2 pseudoparticles; format: cell-based
TMPRSS2 of Caco2 cells [3] = target: TMPRSS2 of Caco2 cells (UniProt O15393); test: cell-based or functional assay
Chain of TMPRSS2 of Caco2 cells (UniProt O15393) (O15393 whole entry): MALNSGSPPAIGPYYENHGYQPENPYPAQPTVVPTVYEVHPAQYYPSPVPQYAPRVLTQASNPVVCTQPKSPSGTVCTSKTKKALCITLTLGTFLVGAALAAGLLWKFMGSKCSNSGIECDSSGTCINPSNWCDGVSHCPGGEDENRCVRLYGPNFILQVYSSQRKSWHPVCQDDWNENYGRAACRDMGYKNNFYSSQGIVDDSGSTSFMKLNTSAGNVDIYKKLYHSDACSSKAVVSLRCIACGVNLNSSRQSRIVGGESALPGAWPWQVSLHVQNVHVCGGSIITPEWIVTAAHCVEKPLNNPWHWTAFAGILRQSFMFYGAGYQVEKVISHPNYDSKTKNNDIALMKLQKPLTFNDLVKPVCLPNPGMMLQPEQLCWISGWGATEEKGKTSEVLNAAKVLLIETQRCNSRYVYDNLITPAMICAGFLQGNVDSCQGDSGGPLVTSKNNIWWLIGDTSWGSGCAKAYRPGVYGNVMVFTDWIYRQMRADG

SARS-CoV-2 [4] = conditions: pretreatment, Vero-E6 cells; cited from earlier work
PEDV = conditions: pretreatment, Vero-E6 cells; cited from earlier work
[5] = tested on: Main Protease of coronaviruses; conditions: enzymatical assays; cited from earlier work
TMPRSS2 of Caco2 cells [6] = target: TMPRSS2 of Caco2 cells (UniProt O15393 1-492); test: cell-based or functional assay
Chain of TMPRSS2 of Caco2 cells (UniProt O15393 1-492) (O15393 whole entry): as above

Caco-2 cells = conditions: in the tested concentrations
[7] = target: T1, recombinant human TMPRSS2 (Homo sapiens, UniProt O15393); test: TMPRSS2 activity assay (fluorogenic reporter peptide substrate); format: biochemical; conditions: dose-dependent; read-out: IC50 of TMPRSS2 proteolytic activity
T1 construct: purchased LSBio LS-G57269
T1 sequence (O15393 whole entry): as above
Method: The respective protease (TMPRSS2 or neutrophil elastase) is mixed with a serial dilution of rhAAT, camostat mesylate or Prolastin resulting in the formation of a complex between the test compound and the protease. Subsequently, a fluorogenic reporter peptide substrate is added. Upon cleavage of the reporter peptide substrate by the protease, a fluorescent dye is set free.
For assessing the activity of recombinant human TMPRSS2, 25 μl of serially diluted Prolastin, camostat mesylate or rhAAT is incubated with 25 μl of 2 μg/ml recombinant TMPRSS2 enzyme (LSBio #LS-G57269) in assay buffer (50 mM Tris-HCL, […] NaCl pH 8.0) for 15 min at 37° C. Next, 50 μl of 20 μM BOC-Gln-Ala-Arg-AMC protease substrate (Bachem #4017019) is added and incubated for 2 h at 37° C. Fluorescence intensity is measured after 2 h at an excitation wavelength of 380 nm and emission wavelength of 460 nm in a Synergy™ H1 microplate reader (BioTek) with Gen5 3.04 software. The assay is performed in a 96 well plate with flat bottom.

SARS-CoV-2 [8] = format: cell-based

In the case of AAT, the “Covid-19 PCR test” value (Covid-19) is given as “negative”, the symptoms (Covid-19) is given as “significantly improved; also recorded: no symptoms” and the “restriction of protease-mediated entry of SARS-CoV-2” value [1] is given as “potently restricts”.

With `CN(C)C(=O)COC(=O)Cc1ccc(OC(=O)c2ccc(NC(=N)N)cc2)cc1` [camostat mesylate, reference compound] the “inhibition of the entry of SARS-CoV-2 pseudoparticles” value [2] was “inhibits the entry of SARS-CoV-2”.

For Prolastin, the “inhibition of the entry of SARS-CoV-2 pseudoparticles” value [2] was “inhibits the entry of SARS-CoV-2”, the Covid-19 rapid tests (Covid-19) was “negative” and the symptoms (Covid-19) was “no symptoms”.

For “Prolastin: human serum derived AAT (from UniProt P01009 25-418)”, the IC50 of inhibiting pseudoparticle entry into Caco2 cells (Prolastin) (TMPRSS2 of Caco2 cells [3]) was 3160 µg/mL and the estimated IC90 of pseudoparticle entry into Caco2 cells, derived from FIG. 4 (TMPRSS2 of Caco2 cells [3]) was 20000 µg/mL.

For `COc1cc(O)c(CC=C(C)C)c(O)c1C(=O)/C=C/c1ccc(O)cc1` [Xanthohumol], the SARS-CoV-2 replication (SARS-CoV-2 [4]) is listed as “restricted”, the PEDV replication (PEDV) is listed as “restricted” and the “inhibition of protease activities” value [5] is listed as “inhibited protease activities”.

B1: rec α1AT from supernatant of Pichia pastoris X33, anion exchange fractions 52 and 53 (other)
chain: EDPQGDAAQKTDTSHHDQDHPTFNKITPNLAEFAFSLYRQLAHQSNSTNIFFSPVSIATAFAMLSLGTKADTHDEILEGLNFNLTEIPEAQIHEGFQELLRTLNQPDSQLQLTTGNGLFLSEGLKLVDKFLEDVKKLYHSEAFTVNFGDTEEAKKQINDYVEKGTQGKIVDLVKELDRDTVFALVNYIFFKGKWERPFEVKDATEEEDFHVDQVTTVKVPMMKRLGMFNIQHCKKLSSWVLLMKYLGNATAIFFLPDEGKLQHLENELTHDIITKFLENEDRRSASLHLPKLSITGTYDLKSVLGQLGITKVFSNGADLSGVTEEAPLKLSKAVHKAVLTIDEKGTEAAGAMFLEAIPMSIPPEVKFNKPFVFLMIEQNTKSPLFMGKVVNPTQK
For B1, the “IC50 of inhibiting pseudoparticle entry into Caco2 cells (rec α1AT Fraction 52)” value (TMPRSS2 of Caco2 cells [6]) was 3060 µg/mL and the “IC50 of inhibiting pseudoparticle entry into Caco2 cells (rec α1AT Fraction 53)” value (TMPRSS2 of Caco2 cells [6]) was 3960 µg/mL.

B2: rhAAT (protein)
chain: EDPQGDAAQKTDTSHHDQDHPTFNKITPNLAEFAFSLYRQLAHQSNSTNIFFSPVSIATAFAMLSLGTKADTHDEILEGLNFNLTEIPEAQIHEGFQELLRTLNQPDSQLQLTTGNGLFLSEGLKLVDKFLEDVKKLYHSEAFTVNFGDTEEAKKQINDYVEKGTQGKIVDLVKELDRDTVFALVNYIFFKGKWERPFEVKDATEEEDFHVDQVTTVKVPMMKRLGMFNIQHCKKLSSWVLLMKYLGNATAIFFLPDEGKLQHLENELTHDIITKFLENEDRRSASLHLPKLSITGTYDLKSVLGQLGITKVFSNGADLSGVTEEAPLKLSKAVHKAVLTIDEKGTEAAGAMFLEAIPMSIPPEVKFNKPFVFLMIEQNTKSPLFMGKVVNPTQK
In the case of B2, the “toxicity for Caco-2 cells” value (Caco-2 cells) is reported as “nontoxic”, the IC50 [7] is reported as about 350 nM and the “inhibition of the entry of SARS-CoV-2 pseudoparticles” value [2] is reported as “inhibits the entry of SARS-CoV-2 similar to Prolastin and camostat mesylate”. The pseudoparticle entry [2] was “almost no pseudoparticle entry”, the SARS-CoV-2 spike expression (SARS-CoV-2 [8]) was “less detectable than Prolastin treated HAECs” and the “inhibition of SARS-CoV-2 replication” value (SARS-CoV-2 [8]) was “more effectively than Prolastin”. The viral titer (SARS-CoV-2 [8]) was “reduce viral titer”.
